{
  "source": "patent US8632989B1",
  "about": "“Mutant insulin degrading enzyme and methods of use” (University of Kentucky Research Foundation, priority 2011, dated 2014)",
  "molecules": {"B1": {"name": "IDE: Native rat insulin degrading enzyme (SEQ ID NO:1), expressed as hexahistidine fusion protein in Sf9 insect cells (protein, listed as Rattus norvegicus)", "chain": "MRNGLVWLLHPALPSTLHSILGARPPPVKRLCGFPKQIYSTMNNPAIQRIEDHIVKSPEDKREYRGLELANGIKVLLISDPTTDKSSAALDVHIGSLSDPPNIPGLSHFCEHMLFLGTKKYPKENEYSQFLSEHAGSSNAFTSGEHTNYYFDVSHEHLEGALDRFAQFFLCPLFDASCKDREVNAVDSEHEKNVMNDAWRLFQLEKATGNPKHPFSKFGTGNKYTLETRPNQEGIDVREELLKFHSTYYSSNLMAICVLGRESLDDLTNLVVKLFSEVENKNVPLPEFPEHPFQEEHLKQLYKIVPIKDIRNLYVTFPIPDLQQYYKSNPGHYLGHLIGHEGPGSLLSELKSKGWVNTLVGGQKEGARGFMFFIINVDLTEEGLLHVEDIILHMFQYIQKLRAEGPQEWVFQECKDLNAVAFRFKDKERPRGYTSKIAGKLHYYPLNGVLTAEYLLEEFRPDLIDMVLDKLRPENVRVAIVSKSFEGKTDRTEQWYGTQYKQEAIPEDVIQKWQNADLNGKFKLPTKNEFIPTNFEILALEKDATPYPALIKDTAMSKLWFKQDDKFFLPKACLNFEFFSPFAYVDPLHCNMAYLYLELLKDSLNEYAYAAELAGLSYDLQNTIYGMYLSVKGYNDKQPILLKKITEKMATFEIDKKRFEIIKEAYMRSLNNFRAEQPHQHAMYYLRLLMTEVAWTKDELKEALDDVTLPRLKAFIPQLLSRLHIEALLHGNITKQAALGVMQMVEDTLIEHAHTKPLLPSQLVRYREVQLPDRGWFVYQRRNEVHNNCGIEIYYQTDMQSTSENMFLELFCQIISEPCFNTLRTKEQLGYIVFSGPRRANGIQGLRFIIQSEKPPHYLESRVEAFLITMEKAIEDMTEEAFQKHIQALAIRRLDKPKKLSAECAKYWGEIISQQYNYDRDNIEVAYLKTLSKDDIIKFYKEMLAVDAPRRHKVSVHVLAREMDSCPVVGEFPSQNDINLSEAPPLPQPEVIHNMTEFKRGLPLFPLVKPHINFMAAKL", "modifications": "hexahistidine tag; wild-type Insulin Degrading Enzyme (IDE) from rat"}},
  "molecular_target": "T1, Abz-GGFLRKHGQ-EDDnp (Rattus norvegicus, UniProt P35559)",
  "T1 construct": "begin at methionine 42, which is believed to be the in vivo start site, and extend through the native C-terminal residue leucine 1019; hexahistidine with linker holding a TEV protease site (N, cleaved yes); made in house; host or cells: SF9 insect cells (baculovirus, pFastBac HTb)",
  "T1 sequence (P35559 42-1019)": "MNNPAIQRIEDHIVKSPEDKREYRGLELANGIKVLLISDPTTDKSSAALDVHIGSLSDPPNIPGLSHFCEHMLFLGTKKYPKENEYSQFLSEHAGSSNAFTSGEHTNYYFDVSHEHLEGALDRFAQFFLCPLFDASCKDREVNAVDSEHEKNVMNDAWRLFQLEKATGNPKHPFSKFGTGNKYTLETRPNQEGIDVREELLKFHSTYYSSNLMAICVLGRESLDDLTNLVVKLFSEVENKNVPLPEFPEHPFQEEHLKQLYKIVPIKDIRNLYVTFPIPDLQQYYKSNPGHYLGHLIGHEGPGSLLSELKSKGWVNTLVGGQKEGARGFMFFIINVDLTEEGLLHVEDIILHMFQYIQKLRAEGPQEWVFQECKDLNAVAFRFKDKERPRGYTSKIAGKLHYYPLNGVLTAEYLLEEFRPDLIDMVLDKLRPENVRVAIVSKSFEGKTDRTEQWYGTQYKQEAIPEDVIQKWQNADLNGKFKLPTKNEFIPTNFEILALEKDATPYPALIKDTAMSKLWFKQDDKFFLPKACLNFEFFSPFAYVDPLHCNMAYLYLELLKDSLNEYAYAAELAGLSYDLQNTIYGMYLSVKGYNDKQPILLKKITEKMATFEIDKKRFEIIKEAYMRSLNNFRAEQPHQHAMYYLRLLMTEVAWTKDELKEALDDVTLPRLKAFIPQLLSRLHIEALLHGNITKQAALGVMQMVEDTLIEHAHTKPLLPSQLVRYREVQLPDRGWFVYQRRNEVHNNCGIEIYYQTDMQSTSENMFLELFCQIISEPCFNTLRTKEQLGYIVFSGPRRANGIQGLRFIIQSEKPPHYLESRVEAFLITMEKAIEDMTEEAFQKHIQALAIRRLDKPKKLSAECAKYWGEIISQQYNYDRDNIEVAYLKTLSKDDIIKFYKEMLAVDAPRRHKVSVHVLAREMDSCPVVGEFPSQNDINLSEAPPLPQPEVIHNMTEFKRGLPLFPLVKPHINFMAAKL",
  "experiment": "Activation by bradykinin, wild type rIDE and distal site mutants",
  "assay_type": "biochemical",
  "details": "10 μM Abz-GGFLRKHGQ-EDDnp as substrate",
  "procedure": "FIG. 17. Effects of distal site mutations. (A) Comparison of the kinetics of wild type IDE with the distal site mutants. Activity was measured with varying amounts of Abz-[…]-EDDnp (SEQ ID NO:3) substrate as indicated. Either hyperbolic (Michaelis-Menten equation) or sigmoidal curves (Hill equation) were fit to the data. (B) Effect of bradykinin on the activity of wild type IDE and the distal site mutants. (C) Activation of wild type IDE and distal site mutants by ATP. Relative activity is the fold activation above the level of the wild type enzyme alone.\nThe activity of IDE was measured by following the increase in fluorescence upon hydrolysis at the L-R bond of the fluorogenic peptide Abz-[…]-EDDnp (SEQ ID NO:3) on a SpectraMax Gemini XS fluorescence plate reader using an excitation wavelength of 318 nm and emission wavelength of 419 nm. Reactions were carried out in 200 μl volumes containing 50 mM Tris-HCl, pH 7.4, 1.92 μg of wild type rIDE, 4.6 μg of rIDE-V360S, 4.3 μg rIDE-I374S, or 1.63 μg of rIDE-Y609F. For measurements of activation by bradykinin, IDE activity was determined with 10 μM Abz-[…]-EDDnp (SEQ ID NO:3) as substrate in 50 mM Tris-HCl buffer, pH 7.4. The amount of protein was 0.5 μg for wild type rIDE and 5 μg for each of the IDE distal-site mutants. Data were analyzed using Softmax 4.0 (Molecular Devices) and kinetic parameters calculated with Prism (Graphpad Software). […]",
  "data": [
    {"molecule": "B1", "values": [
      {"measurement": "Heterotropic activation with bradykinin", "value": "approximately 4 fold"}
    ]}
  ]
}
